Biological target: human CXCR5 (human) (UniProt P32302)
Assay: cell-based or functional assay

Sequence of UniProt P32302 (P32302 whole entry): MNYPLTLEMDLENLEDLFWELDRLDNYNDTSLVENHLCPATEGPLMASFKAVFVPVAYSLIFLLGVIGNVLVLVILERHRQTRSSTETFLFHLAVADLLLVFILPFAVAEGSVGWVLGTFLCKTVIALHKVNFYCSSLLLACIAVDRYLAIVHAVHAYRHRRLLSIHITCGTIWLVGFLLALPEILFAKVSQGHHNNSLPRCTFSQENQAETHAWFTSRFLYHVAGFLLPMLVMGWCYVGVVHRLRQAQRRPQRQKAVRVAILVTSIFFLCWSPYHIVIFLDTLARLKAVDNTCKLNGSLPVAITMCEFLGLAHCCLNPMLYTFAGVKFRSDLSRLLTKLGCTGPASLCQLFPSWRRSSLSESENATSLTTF

A Ca-flux (FLU) at 0 nM rhCXCL13 (baseline) of 1680 FLU, a Ca-flux (FLU) at 1.95 nM rhCXCL13 of 2220 FLU and a Ca-flux (FLU) at 3.91 nM rhCXCL13 of 1840 FLU were found for “human CXCL13 (from UniProt O43927 23-94) (ligand)” in this work. For the same substance, the Ca-flux (FLU) at 7.81 nM rhCXCL13 was 1860 FLU, the Ca-flux (FLU) at 16 nM rhCXCL13 was 6160 FLU and the Ca-flux (FLU) at 31 nM rhCXCL13 was 31100 FLU. It also gave a Ca-flux (FLU) at 63 nM rhCXCL13 of 51900 FLU, a Ca-flux (FLU) at 125 nM rhCXCL13 of 74700 FLU and a Ca-flux (FLU) at 250 nM rhCXCL13 of 78400 FLU. It also gave a Ca-flux (FLU) at 500 nM rhCXCL13 of 68100 FLU.

Source: WO2012010582A1
